Molecular target: human PD-L1 (human, UniProt Q9NZQ7 19-290)
Assay: FACS

human PD-L1, sequence (Q9NZQ7 19-290): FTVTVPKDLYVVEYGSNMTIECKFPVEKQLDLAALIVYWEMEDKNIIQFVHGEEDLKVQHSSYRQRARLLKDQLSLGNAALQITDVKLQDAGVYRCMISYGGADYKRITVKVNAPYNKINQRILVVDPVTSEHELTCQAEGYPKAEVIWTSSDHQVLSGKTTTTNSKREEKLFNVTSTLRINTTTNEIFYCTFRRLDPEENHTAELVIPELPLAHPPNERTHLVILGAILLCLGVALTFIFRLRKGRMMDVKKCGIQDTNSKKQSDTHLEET

EC50: 1.2 nM
B1: PR004268, PD-L1×4-1BB bispecific binding protein with the VH-IgG structure (structure 4) (bispecific antibody)
light: DIQMTQSPSTLSASVGDRVTVTCRASQSIYIWLAWYQQKPGKAPNLLIYKASSLETGVPSRFSGSGSGTEFTLTISSLQPDDFATYYCQQYYGSSRTFGQGTKVEIKRTVAAPSVFIFPPSDEQLKSGTASVVCLLNNFYPREAKVQWKVDNALQSGNSQESVTEQDSKDSTYSLSSTLTLSKADYEKHKVYACEVTHQGLSSPVTKSFNRGEC
heavy: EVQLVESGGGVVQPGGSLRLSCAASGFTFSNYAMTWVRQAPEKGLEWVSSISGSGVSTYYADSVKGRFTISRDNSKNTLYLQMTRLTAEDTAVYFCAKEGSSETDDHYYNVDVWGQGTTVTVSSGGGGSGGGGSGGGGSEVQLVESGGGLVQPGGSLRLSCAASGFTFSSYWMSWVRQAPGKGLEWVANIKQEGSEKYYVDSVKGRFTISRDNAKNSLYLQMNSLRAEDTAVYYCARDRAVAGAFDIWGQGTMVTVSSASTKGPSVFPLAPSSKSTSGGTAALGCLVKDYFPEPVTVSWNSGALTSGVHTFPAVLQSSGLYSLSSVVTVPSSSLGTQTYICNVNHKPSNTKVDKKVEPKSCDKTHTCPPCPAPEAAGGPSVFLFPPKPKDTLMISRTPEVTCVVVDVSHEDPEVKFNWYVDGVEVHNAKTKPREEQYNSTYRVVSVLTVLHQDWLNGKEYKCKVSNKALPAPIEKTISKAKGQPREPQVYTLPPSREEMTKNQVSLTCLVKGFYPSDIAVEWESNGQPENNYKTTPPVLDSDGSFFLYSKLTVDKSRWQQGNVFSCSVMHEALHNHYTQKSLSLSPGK

Source: patent US20230287143A1 (published 2023)
